B1: Histone deacetylase 3 (Homo sapiens), O15379 (parent)
chain: MAKTVAYFYDPDVGNFHYGAGHPMKPHRLALTHSLVLHYGLYKKMIVFKPYQASQHDMCRFHSEDYIDFLQRVSPTNMQGFTKSLNAFNVGDDCPVFPGLFEFCSRYTGASLQGATQLNNKICDIAINWAGGLHHAKKFEASGFCYVNDIVIGILELLKYHPRVLYIDIDIHHGDGVQEAFYLTDRVMTVSFHKYGNYFFPGTGDMYEVGAESGRYYCLNVPLRDGIDDQSYKHLFQPVINQVVDFYQPTCIVLQCGADSLGCDRLGCFNLSIRGHGECVEYVKSFNIPLLVLGGGGYTVRNVARCWTYETSLLVEEAISEELPYSEYFEYFAPDFTLHPDVSTRIENQNSRQYLDQIRQTIFENLKMLNHAPSVQIHDVPADLLTYDRTDEADAEERGPEENYSRPEAPNEFYDGDHDNDKESDVEI

This assay covers variants of B1. The note with it: with hdac1_human HDAC1, Q13547.
hdac1_human HDAC1, Q13547, sequence (Q13547 whole entry): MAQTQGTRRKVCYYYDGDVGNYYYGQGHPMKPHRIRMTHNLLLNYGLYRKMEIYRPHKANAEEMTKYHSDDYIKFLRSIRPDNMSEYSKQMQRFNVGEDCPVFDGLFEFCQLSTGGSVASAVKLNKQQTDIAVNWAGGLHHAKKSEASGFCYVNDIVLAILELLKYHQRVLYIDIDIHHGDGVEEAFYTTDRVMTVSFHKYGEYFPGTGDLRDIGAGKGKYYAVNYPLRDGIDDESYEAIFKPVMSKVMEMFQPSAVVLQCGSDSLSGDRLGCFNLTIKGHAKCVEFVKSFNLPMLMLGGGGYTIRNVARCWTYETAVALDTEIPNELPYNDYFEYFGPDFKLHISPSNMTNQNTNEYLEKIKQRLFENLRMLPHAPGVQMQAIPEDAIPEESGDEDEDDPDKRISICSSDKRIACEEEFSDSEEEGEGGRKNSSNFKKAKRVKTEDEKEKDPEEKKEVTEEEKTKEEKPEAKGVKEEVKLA
H134Q: the “effect of a mutation on the interaction” value is reported as “with no effect”.

The record behind these values is IntAct's records for PubMed 22918830.
